Results taken from patent publication US5389611A, “Lactoferrin hydrolyzate for use as an antibacterial agent and as a tyrosinase inhibition agent” (priority 1990, dated 1995).

B1: lactoferrin (protein, UniProt P24627 20-708, looked up)
Lactotransferrin: APRKNVRWCTISQPEWFKCRRWQWRMKKLGAPSITCVRRAFALECIRAIAEKKADAVTLDGGMVFEAGRDPYKLRPVAAEIYGTKESPQTHYYAVAVVKKGSNFQLDQLQGRKSCHTGLGRSAGWIIPMGILRPYLSWTESLEPLQGAVAKFFSASCVPCIDRQAYPNLCQLCKGEGENQCACSSREPYFGYSGAFKCLQDGAGDVAFVKETTVFENLPEKADRDQYELLCLNNSRAPVDAFKECHLAQVPSHAVVARSVDGKEDLIWKLLSKAQEKFGKNKSRSFQLFGSPPGQRDLLFKDSALGFLRIPSKVDSALYLGSRYLTTLKNLRETAEEVKARYTRVVWCAVGPEEQKKCQQWSQQSGQNVTCATASTTDDCIVLVLKGEADALNLDGGYIYTAGKCGLVPVLAENRKSSKHSSLDCVLRPTEGYLAVAVVKKANEGLTWNSLKDKKSCHTAVDRTAGWNIPMGLIVNQTGSCAFDEFFSQSCAPGADPKSRLCALCAGDDQGLDKCVPNSKEKYYGYTGAFRCLAEDVGDVAFVKNDTVWENTNGESTADWAKNLNREDFRLLCLDGTRKPVTEAQSCHLAVAPNHAVVSRSDRAAHVKQVLLHQQALFGKNGKNCPDKFCLFKSETKNLLFNDNTECLAKLGGRPTYEEYLGTEYVTAIANLKKCSTSPLLEACAFLTR
notes: Native LF sold in the market (by Oleofina, Belgium), not hydrolyzed; control of Tests 1, 3-6, 8
B2: unhydrolyzed Fe-LF: Comparison sample of Test 7; table says unhydrolyzed Fe-LF ?, text says unhydrolyzed LF (protein, UniProt P24627 20-708, looked up)
Lactotransferrin: B1 Lactotransferrin
modifications: iron-saturated

Key:
Escherichia coli [1] = test: Antibacterial activity: proliferation inhibition of E. coli in liquid culture medium (Tests 1, 3, 6); assay type: cell-based
Procedure: From the stock culture of Escherichia coli, a loop of bacterial cells was taken out with a platinum loop and smeared onto a standard plate agar medium (by Nissui Seiyaku), followed by incubation at 35° C. for 16 hours under aerobic condition.
Basic culture medium (liquid culture medium) was prepared by dissolving bactocasitone (by Difco) into purified water in 1% concentration, adjusting the pH of the resultant solution to 7.0 with 1M sodium hydroxide, then sterilizing at 115° C. for 15 minutes.
The solutions of LF hydrolyzates previously prepared in item 1-1) were respectively filtered with membrane filters (by Advantech) to remove microorganisms which might be included therein. Different quantities of each of filtered solutions of LF hydrolyzates were respectively added to a portion of the basic culture medium to give 6 lots of test culture media containing LF hydrolyzate in different concentrations for each LF hydrolyzate having different decomposition rates as shown in Table 1. Control culture media containing unhydrolyzed LF in different concentrations were also prepared in the same manner as in the test culture media.
To each of the test and control culture media, the pre-culture was inoculated in 1% concentration, followed by incubation at 35° C. for 16 hours. The proliferation inhibition rate was determined by measuring the optical density of the culture broth in the same manner as previously described and calculating in accordance with the following formula:
proliferation inhibition rate (%)=100-(A/B×100)
(wherein A denotes the difference of optical densities of the test culture media before and after 16 hours incubation, B denotes the difference of optical densities of the control culture media before and after 16 hours incubation respectively) and
Antibacterial activity against E. coli of LF hydrolyzate having a 12% decomposition rate prepared in the same manner as in Example 2 (hydrolysis by citric acid) and that of unhydrolyzed LF were determined in the same manner as in Test 1.
Aqueous solutions of 10 kinds of LF hydrolyzate (prepared using different enzymes) and an aqueous solution of unhydrolyzed LF prepared in the same manner as in test 2 were filtered with membrane filters (by Advantec) to remove bacterial cells which might be contaminated therein. Each of the solutions was added to basic culture media (the same with that in Test 1) in different concentrations (50, 100, 250, 500, and 1000 ppm) to prepare test cultures and control cultures.
Antibacterial activity was tested for these cultures in the same manner as in test 1.

[2] = Preservation of cow's milk, change in appearance (Test 7); settings: cow's milk at 25° C.
Procedure: The antibacterial activity of hydrolyzates of iron saturated LF was tested in the same manner as in test 5, except that hydrolyzates of iron saturated LF prepared in the same manner as in Example 5 and cow's milk sold in the market were used.
Each of three kinds of samples, to one of which is added hydrolyzate of Fe-LF, to another one of which is added unhydrolyzed LF and the third of which is added nothing, were respectively distributed into 3 test tubes (in total 9) and preserved at 25° C. for observation of any change in appearance.

viable bacterial count = test: Viable bacterial count of treated sliced vegetables (Test 4); settings: dipped in 1% aqueous solution 30 seconds, preserved at 5° C.
Procedure: A quantity of sliced vegetables sold in the market was divided into three parts. […] Each of the treated samples was drained then preserved at 5° C. for observation. Viable bacterial count of the samples was periodically determined by the conventional method.

Escherichia coli [3] = test: Antibacterial activity against E. coli in the presence of iron (Test 8); assay type: cell-based; settings: 0.01 mM of ferrous sulfate
[4] = preservation day 10, 3 test tubes
[5] = preservation day 14, 3 test tubes

Molecule	quantity added at which antibacterial activity was shown (Escherichia coli [1]; Table 1)	proliferation inhibition rate (Escherichia coli [1]; Table 1, concentration 1000 ppm)	proliferation inhibition rate (Escherichia coli [1]; Table 3, quantity added 25 ppm)	proliferation inhibition rate (Escherichia coli [1]; Table 3, quantity added 50 ppm)	proliferation inhibition rate (Escherichia coli [1]; Table 3, quantity added 100 ppm)	proliferation inhibition rate (Escherichia coli [1]; Table 3, quantity added 250 ppm)	proliferation inhibition rate (Escherichia coli [1]; Table 3, quantity added 500 ppm)	proliferation inhibition rate (Escherichia coli [1]; Table 3, quantity added 1000 ppm)	proliferation inhibition rate (Escherichia coli [1]; Table 5, quantity 250 ppm)	proliferation inhibition rate (Escherichia coli [1]; Table 5, quantity 1000 ppm)	change in appearance of milk [2, 4]	change in appearance of milk [2, 5]	viable bacterial counts (viable bacterial count; 0 hours)	viable bacterial counts (viable bacterial count; 12 hours)	viable bacterial counts (viable bacterial count; 24 hours)	viable bacterial counts (viable bacterial count; 36 hours)	antibacterial activity in the presence of ferrous sulfate, in words (Escherichia coli [3])	change in appearance of milk ([2]; preservation day 0, 3 test tubes)	change in appearance of milk ([2]; preservation day 3, 3 test tubes)	change in appearance of milk ([2]; preservation day 7, 3 test tubes)
B1	more than 250 ppm	complete inhibition could not be achieved	0%	0%	5%	16%	74%	85%	weak antibacterial activity	complete inhibition against proliferation of E. coli could not be achieved	did not show any change in appearance	all of the samples showed coagulation	5.1 × 10^3 per 1 g of sliced vegetables	2.0 × 10^4 per 1 g of sliced vegetables	1.8 × 10^5 per 1 g of sliced vegetables	2.2 × 10^5 per 1 g of sliced vegetables	deactivated	–	–	–
B2	–	–	–	–	–	–	–	–	–	–	no change	coagulated	–	–	–	–	–	no change	no change	no change
